Measured values as given in the nanobody polyreactivity screen of Harvey et al. (2022).

Test: yeast display, Sf9 membrane polyspecificity reagent, FACS + sequencing; frameworks hold sequencing errors
Summary of the method: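 Galactose induction of a Saccharomyces cerevisiae BJ5465 synthetic nanobody display library ran 36–48 hours. The cells were then stained for 1 hour at 4 °C with 10% biotinylated, detergent-solubilized Sf9 membrane reagent, pulled down on streptavidin microbeads and FACS-sorted into low and high (top ~1%) gates on expression and reagent-binding fluorescence. Labels for polyreactivity follow the gate of origin.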

| Sequence | polyreactivity (PSR sort gate) |
| --- | --- |
| QVQLVESGGGLVQAGGSLRLSCAASGFTFNSYAMGWYRQAPGKKGSWLAITSDGSTYYADSVKGRFTISRDNAKNTVYLQMNSLKPEDSAVYFCAVRTSWYGAASRYYYWGQGTKVTVSS | high polyreactivity |
| QVQLVESGGGLVQAGGSHRLSCAACGYIFFYNAMGWYRQAPGKERELVASITYRGGSTYYADSVKGRFTISRDNAKNSVYLQMNSLKPEDTAVYYCNVDGGGPLGPQGFPFDYWGQGTQVTVSS | low polyreactivity |
| QVQLVESGGGLVQAGGSLRLSCAASGRTFGFNVMGRYRQAPGKERELVAAISWSGGSTYYADSVKGRFTISRDNAKNTVYLQMTSLKPEDTAVYYCNKRYVHRYGYWGQGTQVTVSS | low polyreactivity |
| QVQLVESGGGLVQAGGSLRLSCAASGRTSRQYAMGWYRQAPGKEREFVAAITWSDSGTYYADSVKGRFTISRDNAKNTVYLQMNSLKPEDTAVYYCAAERYLSFDRYLYEYYYWGQGTQVTVSS | low polyreactivity |
| QVQLVESGGGLVQAGGSLRLSCAASGYTFRYYAMGWYRQAPGKERELVAAINWSGGSTYYADSVKGRFTISRDNAKNTVYLQMNSLKPEDTAVYYCAADPDGDLDIDYDYWGQGTQVTVSS | low polyreactivity |
| QVQLVESGGGLVQAGGSLRLSCAASGSTFVRYAMGWYRPAPGKERELVAVISSSGGTTYYADSVKGRFTISRDNAKNTVYLQMNSLKPEDTAVYSCARRVRWWGPRRSDFDYWGQGTQVTVSS | high polyreactivity |
| QVQLVESGGGLVQAGGSLRLSCAASGYTFFYYAMGWYRQAPGKERELVATISGNGGRTYYADSVKGRFTISRDNAKKTVYLQMNSLKPEDTAVYYCAALLYIRSVGYDYWGQGTQVTVSS | low polyreactivity |
| QVQLVESGGGLVQAGGSLRLSCAASGSTFYHYAMGWYRQAPGKERELVAAISSSGGRTYYADSVKGRFTISRDNAKNTVYLQMNSLKPEDTAVYYCAARAKTSGSIEDYWGQGTQVTVSS | high polyreactivity |
| QVQLVESGGGLVQAGGSLRLSCAASGFTFYYYVMGWYRQAPGKERELVAAITNGGSTYYADSVKGRFTISRDNAKNTVYLQMISLKPEDTAVYYCATRQSHWSGEFDYWGQGTQVTVSS | high polyreactivity |
| QVQLVESGGGLVQAGGSLRLSCAASGRTYNTNAMGWYRQAPGKERELVAAISGGGSTYADSVKGRFTISRDNAKNTVYLQMNSLKPEDTAVYYCAAQNVWFYGFWRDYWGQGTQVTVSS | low polyreactivity |
| QVQLVESGGGLVQAGGSLRLSCAASGRTFLVYAMGWYRQAPGKERELVAAISSDGSTNYADSVKGRFTISRDNAKNTVYLQMNSLKPEDTAVYYCARDGRTEHRGFDYWGQGTQVTVSS | low polyreactivity |
| QVQLVESGGGLVQAGGSLRLSCAASGFTFVRYAMGWYRQAPGKEREFVASISARGGNTFYADSVKGRFTISRDNAKNTVYLQMNSLKPEDTAVYYCAKRGPYGTGYGYWGQGTQVTVSS | high polyreactivity |
| QVQLVESARGLVQAGGCLRLSCAASGSTFHQNAMGWSRQAPGKERELVAAITSGGSTYYADSVKGRFTISRDNAKNTGYLQMNSLKPEDTAVYYCNALTHVRSKRWRFRSEHDYWGQGTQVTVSS | high polyreactivity |
| QVQLVESGGGLVQAGGSLRLSCAASGRIFTRYTMGWYRQAPGKERELVAAISSSDSSTYYADSVKGRFTISRDNAKNTVYLQMNSLKPEDTAVYYCNADRLFYEIYDYGAVRIGYDYWGQGTQVTVSS | low polyreactivity |
| QVQLVESGGGLVQAGGSLRLSCAASGFIFDDNAMGWYRQAPGKERELVAAITSGGGSTYYADSVKGRFTISRDNAKNTVYLQMNSLIPEDTAVYYCNAVPSQHDEFDYWGQGTHVTVSS | low polyreactivity |
| QVQLVESEGGLVQAGGSLRLSFAASGSIFPYNAMGWYRQAPGKERELVAAISISGGSTYYADSVKGRFTISRDNAKNTVYLLMNSLKPEDTAVYYCAARQSLSSAFDYCGQGTQVTVSS | low polyreactivity |
| QVQLVESGGGLVQAGGSLRLSCAASGRTFYIYAMGWYRQAPAKERELVAAITWSRGSSTYYADSVKGRFTISRDNAKNTVYLQMNSLKPEDTAVYYCAAETHYYWYEQYDYCGQGTQVTVSS | high polyreactivity |
| QVQLVVSGGGLVQAGGSLRLSCAASGRFFGYYARGWYRQAPGEERELVAAITRGGSTNYADSVKGRFTISRDNAKNTVYLQMNSLKPEDTAVYYCNARRYRPGTASYDYWGQGTQVTVSS | high polyreactivity |
| QVQLVESGGGKVQAGGSLRLSCAASGRIFSVYTMGWYSQAPGKERELVAAISSGASTNYADSVKGRFTISRDNAKNTVYLQMNSLKPEDTAVEYCNAQWYLRLGASKTWVDVDYWGQGTQVTVSS | low polyreactivity |
| QVQLVESGGGLVQAGGSLRLSCAASGITFGPYAMGWYRQAPGKERELVAAITWGGGSTYYADSVKGRFTISRDNAKTTVYLQMNSLKPEDTAVSYCNAEGSTTSRYLPYDYWGQGTQVTVSS | low polyreactivity |
| QVQLVESGGGLVQAGGSLRLSCAASGSLVGYYPMGWYRQAPGKERELVAAISRSGGSTYYADSVKGRFSISRDNAKNTVYLQMNSLKPEDTAVYYCATSRVRSAGRDYWGQGTQVTVSS | high polyreactivity |
| QVQLVESGGGLVQAGGSLRISCAASGSTFWYHAKGWSRQAPGKERELVATITNSGGSTYYADSVKGRFTISRDNAKNTVYLQKNSLKPEDTAVYYGATDVYSGALLKYDFWGQGTQVTVSS | low polyreactivity |

| Sequence | polyreactivity (PSR sort gate) |
| --- | --- |
| QVQLVESGGGLVQAGGSLRLSCAASGFIFYSYAMGWYRQAPGKERELVAAITYSGGSTYYADSVKGRFTISRDNAKNTVYLQMNSLKPEDTAVYYCADDYYHPGYIYEYWGQGTQVTVSS | low polyreactivity |
| QFQLVESGGGLVQAGGSLRLSCAASGSTFDPYAMGWDTQAPGKEREFLADIDSSVGSTFYADSVKGRFTISRDNPKNTVYLQMNSLKPEDTAVYYCAAASRVAKGRWRLYDYWGQGTQVTVSS | high polyreactivity |
| QVQLVESRRGLVQAGGSLRLSCAASGRISNEYAMVWSRQAPGKERELVATITFSGGDTYYADSVKGRFTISRHNAKNTVYLHKNSLKPEDSAVYYCAASKWRSYCGGWWRLQFDYWGQGTQVTVSS | low polyreactivity |
| QVQLVESGGGLVQAGGSLRLSCAASGFIFRYYAMGWYRQAAGTERELVAAISGGGSSTYYADSVKGRFTISRDNAKNTVYLQMNSLKPEDTAVYYSTARYYYPAIKYDYCGQGTQVTVSS | low polyreactivity |
| QVQLVESGGRLVQAGGSLRLSCAASGRIFRRNAMGWYRQAPGKERELVAAISSSGGRTYYADSVKGRFTISRDNAKNTVYLQMNSLKPEDTAVYYCATRESLEPGYYWGQGTQVTVSS | high polyreactivity |
| QVQLVQSGGGLVQAGGSLRLSCAASGRISIIYAMVWYRQAPGKERELVARISGSGGSTNYADSVKGRFTISRDNAKNTVYLQMNSLKPEDTAVYYCAARHYAVRRSRYPGKLGYYWVQGTQVTVSS | high polyreactivity |
| QVQLVESGGGLVQAGGSLRLSCAASGSTFFHYARGWYRQAPGKERELVAAISGSGGSTYYADSVKGRFTISRDNAKNTVYLQMNSLKPEDTAVYYCNARVWHYTSRTTFDYWGQGTQVTVSS | low polyreactivity |
| QVQLVESGGGLVQAGGSLRLSCAASGSTFGSYAMGWYRQAPGKERELVAAISYSGGSTYYADSVKGRFTISRDNAKNTVYLLMNSLKPEDTAVYYCATVRKYRAMDYWGQGTQVTVSS | high polyreactivity |
| QVQLVESGGGLVQAGGSLRLSCAASGRIFPHNAMGWYRQAPGKERELVAAITKSGDDTYYADSVKGRFTISRDNAKNTVYLQMNSLKPEDTAVYYCAAYLSWYDYWGQGTQVTVSS | low polyreactivity |
| QVQLVESGGGLVQAGGSLRLSCAASGITFTDYAMGWYRQAPGKERELVAAISSSGGRTYYADSVKGRFTISRDNAKNTVYLQMNSLKPEDTAVYYCAARDYDRTQSGRDYWGQGTQVTVSS | high polyreactivity |
| QVQLVESGGGVVQAGGSLRLSCAASGSTFYLTVLGWYRKAPGKERELVAASSSSGGSTYYADSVKGRFTISRDNAKNTVYLQMNSLKPEDTAVYYCNKVSAFPHYSGYAYWGQGTQVPVSS | low polyreactivity |
| QVQLVESGGGLVQAGGSLRLSCAASGRTFETNAMGWYRQAPGKERELVAAISRSGGSTRYADSVKGRFTISRDNAKNTVYLQMNSLKPEDTAVYYCAAETWYRGYKFDYWGQGTQVTVSS | high polyreactivity |
| QVQLVESGGGLVQAGGSLRLSCAASGIIFVDYAMGWYRQAPGKEREFVAAITWSGGSTRYADSVKGRFTISRDNAKNTVYLQMNSLKPEDTAVYYCAALGYNVSSRGYYYWGQGTQVTVSS | low polyreactivity |
| QVQLVESGGGLVQAGGSLRLSCAASGYTFARNAMGWYRQAPGKERELVADINWSGTNTYYADSVKGRFTISRDNAKNTVYLQMNSLKPEDTAVDYCAKDLYFSGYEFDYWGQGTQVTVSS | low polyreactivity |
| QVQLVESGGGLVQAGGSLRLSCAASGRIFYSYAMGWYRQAPGKDRELVAAITRTGGNTYYADSVKGRFTISRDNAKNTVYLQMNSLKPEDTAVYYCNAEYWKEHYPEIYYSWGQGTQVTVSS | low polyreactivity |
| QVQLVESGGGLVQAGGSLRLSCAASGSTFGKYAMGWYRQAPGKERELVATISWSGTSTYYADSVKGRFTISRDNAKNTVYLQMNSLKPEDTAVYYCAADSEGVGVKHIYDYWGQGTQVTVSS | low polyreactivity |
| QVQLVESGGGLVQAGGSLRLSCADSGSTFKYYAMGWYRQAPGKEREFVASINWSGVSTYYADSVKGRFTISRDNPKNTVYLQMNSLKPEDTSVYYCAARVRGKYDYWGQGTQVTVSS | high polyreactivity |
| QVQLQESGGGLVLAGGSLRLSCSASGNISVYGSMGWYRQAPGKEREFVATIDPGTNTNYADSVKDRFTISRDNAKNTVYLQMNSLKPVDTAVYFCAVEAGSDWPYRYWGQGTQVTVSS | low polyreactivity |
| QVQLVESGGGLVQAGGSLRLSCAASGSISIRNAMGWYRQAPGTERELVAAITYSGGSTYYADSVKGRFTISRDNAKNTVYLQLNRLKPEDTAVYYCAKDHYRFRYDYWGQGTQVTVSS | low polyreactivity |
| QVQLVESGGGLVQAGGSLRLSCAASGITFWKYTMGWYRQAPGKERELVAAITGRGGSTYYADSVKGRFTISRDNAMNTVYLQMNRLKPEDTAVYYCAAELRPGYRSSYGLIYDYWGQGTQVTVSS | low polyreactivity |
| QVQLVESGGGLVQAGGSLRLSCAASGSTFDTYAMGWYRQAPGKERELVAAISYSGASTYYADSVKGRFTISRDNAKNTVYLQMNSLKPEDTAVYYCSADGGYYWLYDYWGQGTQVTVSS | low polyreactivity |
